Experimental findings from patent US20260226158A1 are described below.

In the assay the target is human NKp46 on human NKp46-expressing CHO-K1 cells (human) (UniProt O76036). Briefly: flow cytometry on human NKp46-expressing CHO-K1 cells, Alexa Fluor 647 anti-human IgG; upper row of the box. (In general: In flow cytometry, cells or beads pass a laser one at a time.)
Sequence of human NKp46 on human NKp46-expressing CHO-K1 cells (human) (O76036 22-304): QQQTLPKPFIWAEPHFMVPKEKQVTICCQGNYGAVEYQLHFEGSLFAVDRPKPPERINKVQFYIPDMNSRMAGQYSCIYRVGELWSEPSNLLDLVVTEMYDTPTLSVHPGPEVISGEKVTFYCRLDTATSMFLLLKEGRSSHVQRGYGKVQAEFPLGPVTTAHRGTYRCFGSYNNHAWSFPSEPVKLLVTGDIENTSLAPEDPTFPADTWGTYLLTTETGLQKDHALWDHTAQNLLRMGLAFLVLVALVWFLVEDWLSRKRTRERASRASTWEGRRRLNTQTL

With Human IgG (antibody), the Geometric Mean : Alexa Fluor 647-H turned out to be 206.
